Test [1] concerns the target T1, memapsin 2 (spontaneously activated promemapsin 2-T1; amino acids 43-456 and 45-456 of SEQ ID NO: 8) (human, UniProt P56817 41-454).
T1 construct: The library probing says only 'recombinant memapsin 2'; also called BACE; ASP2
Kind of test: on-bead combinatorial inhibitor library probed with 4 nM memapsin 2, OM99-2 wash, antibody/alkaline phosphatase staining.

Test [2] has as its target T1, memapsin 2 (spontaneously activated …). Kind of test: on-bead combinatorial inhibitor library, antibody/alkaline phosphatase staining.
Test [3] addresses T2, memapsin 1 (auto-catalytically activated promemapsin 1-T1; amino acid residues 58-461 of SEQ ID NO: 4) (Homo sapiens (Human), UniProt Q9Y5Z0 63-466).
T2 construct: also called Mep1; M1
T2 sequence: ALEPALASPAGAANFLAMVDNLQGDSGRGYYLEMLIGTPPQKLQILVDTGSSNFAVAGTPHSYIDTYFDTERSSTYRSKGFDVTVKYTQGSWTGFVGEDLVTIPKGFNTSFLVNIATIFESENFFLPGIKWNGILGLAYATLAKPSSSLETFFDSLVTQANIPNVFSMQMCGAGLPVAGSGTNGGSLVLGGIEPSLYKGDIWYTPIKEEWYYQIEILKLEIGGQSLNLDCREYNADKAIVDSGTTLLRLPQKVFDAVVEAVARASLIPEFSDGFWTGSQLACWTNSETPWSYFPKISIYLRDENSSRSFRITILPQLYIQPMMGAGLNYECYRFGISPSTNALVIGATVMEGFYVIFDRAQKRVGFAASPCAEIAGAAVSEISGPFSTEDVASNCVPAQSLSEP
The test is described as follows: on-bead combinatorial inhibitor library probed with memapsin 1, antibody/alkaline phosphatase staining.

Test [4] deals with T1, memapsin 2 (spontaneously activated …). Kind of test: co-crystal structure.
Test [5] has the same target. The test is described as follows: enzyme inhibition kinetics.
Test [6] deals with T2, memapsin 1 (auto-catalytically …). Kind of test: inhibition of FS-2 fluorogenic substrate cleavage.
The target is the same in test [7]. Kind of test: ratio of Ki apparent for memapsin 1 to Ki apparent for memapsin 2.
Test [8] addresses T1, memapsin 2 (spontaneously activated …). The test is described as follows: inhibition of FS-2 fluorogenic substrate cleavage; paragraph 177 calls the same value Ki.

Where no end group is shown, it is not given here. resin bead = not defined here; resin = not defined here

What is called Ki is a dissociation constant, usually derived from enzyme kinetics or from competition with a known ligand. Low values mean a stronger hold on the target, high ones a looser hold on the target.

T1 sequence (P56817 41-454): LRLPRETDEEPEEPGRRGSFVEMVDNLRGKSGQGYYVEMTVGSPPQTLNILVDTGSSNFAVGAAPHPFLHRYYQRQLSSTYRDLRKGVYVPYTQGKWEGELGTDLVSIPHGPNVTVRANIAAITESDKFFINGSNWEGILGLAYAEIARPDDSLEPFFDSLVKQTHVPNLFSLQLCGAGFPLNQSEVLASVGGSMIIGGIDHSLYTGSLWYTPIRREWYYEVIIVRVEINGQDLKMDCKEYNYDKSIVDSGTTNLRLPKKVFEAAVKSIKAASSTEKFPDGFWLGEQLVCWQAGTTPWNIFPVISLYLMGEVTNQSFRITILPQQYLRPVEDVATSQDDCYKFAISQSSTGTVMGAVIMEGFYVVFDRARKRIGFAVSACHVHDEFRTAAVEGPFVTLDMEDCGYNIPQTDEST

B1: library bead inhibitor Gly-Leu-Asp-Leu*Ala-Val-Glu-Phe-Arg-Met-Gly-Gly-resin (peptide)
peptide: GLDLAVEFRMGG-resin
modifications: reading uncertain; also: hydroxyethylene isostere between Leu4 and Ala5, printed as Gly-Leu-Asp-Leu*Ala-Val-Glu-Phe-Arg-Met-Gly-Gly-resin
On to B1, for which the binding result in test [1] is listed as “binds”.

B2: library bead inhibitor Gly-Leu-Asp-Leu*Ala-Val-Gln-Phe-Arg-Met-Gly-Gly-resin (peptide)
peptide: GLDLAVQFRMGG-resin
modifications: reading uncertain; also: hydroxyethylene isostere between Leu4 and Ala5, printed as Gly-Leu-Asp-Leu*Ala-Val-Gln-Phe-Arg-Met-Gly-Gly-resin
For B2, in test [1], the binding result is recorded as “binds”.

B3: library bead inhibitor Gly-Leu-Phe-Leu*Ala-Val-Glu-Phe-Arg-Met-Gly-Gly-resin (peptide)
peptide: GLFLAVEFRMGG-resin
modifications: reading uncertain; also: hydroxyethylene isostere between Leu4 and Ala5, printed as Gly-Leu-Phe-Leu*Ala-Val-Glu-Phe-Arg-Met-Gly-Gly-resin
As for B3, in test [1], the binding result was “binds”.

B4: library bead inhibitor Gly-Leu-Glu-Leu*Ala-Val-Glu-Phe-Arg-Met-Gly-Gly-resin (peptide)
peptide: GLELAVEFRMGG-resin
modifications: reading uncertain; also: hydroxyethylene isostere between Leu4 and Ala5, printed as Gly-Leu-Glu-Leu*Ala-Val-Glu-Phe-Arg-Met-Gly-Gly-resin
In the case of B4, the binding result in test [1] was “binds”.

B5: library bead Neg1: Gly-Phe-Met-Leu*Ala-Asn-Arg-Phe-Arg-Met-Gly-Gly-resin (peptide)
peptide: GFMLANRFRMGG-resin
modifications: reading uncertain; also: hydroxyethylene isostere between Leu4 and Ala5, printed as Gly-Phe-Met-Leu*Ala-Asn-Arg-Phe-Arg-Met-Gly-Gly-resin
notes: Randomly selected negative control bead
As to B5, the binding result in test [2] is listed as “no binding (tested: 4 nM memapsin 2)”.

B6: library bead inhibitor Gly-Leu-Gln-Leu*Ala-Val-Ile-Phe-Arg-Met-Gly-Gly-resin (peptide)
peptide: GLQLAVIFRMGG-resin
modifications: reading uncertain; also: hydroxyethylene isostere between Leu4 and Ala5, printed as Gly-Leu-Gln-Leu*Ala-Val-Ile-Phe-Arg-Met-Gly-Gly-resin
In the case of B6, in test [3], the binding result is “binds”.

B7: library bead inhibitor Gly-Ile-Asp-Leu*Ala-Val-Val-Phe-Arg-Met-Gly-Gly-resin (peptide)
peptide: GIDLAVVFRMGG-resin
modifications: reading uncertain; also: hydroxyethylene isostere between Leu4 and Ala5, printed as Gly-Ile-Asp-Leu*Ala-Val-Val-Phe-Arg-Met-Gly-Gly-resin
Turning to B7, in test [3], the binding result is “binds”.

B8: library bead inhibitor Gly-Ile-Asp-Leu*Ala-Val-Asn-Phe-Arg-Met-Gly-Gly-resin (peptide)
peptide: GIDLAVNFRMGG-resin
modifications: reading uncertain; also: hydroxyethylene isostere between Leu4 and Ala5, printed as Gly-Ile-Asp-Leu*Ala-Val-Asn-Phe-Arg-Met-Gly-Gly-resin
Regarding B8, the binding result in test [3] is listed as “binds”.

B9: library bead Neg2: Gly-Asp-Phe-Leu*Ala-(not printed)-Ser-Phe-Arg-Met-Gly-Gly-resin (peptide)
peptide: GDFLAXSFRMGG-{resin bead}
modifications: not fully specified; X: residue not identified in the source; also: hydroxyethylene isostere between Leu4 and Ala5
notes: as for B5
With B9, the binding result in test [2] is listed as “no binding (tested: 4 nM memapsin 2)”.

B10: OM99-2 (EVNL*AAEF) (peptide)
peptide: EVNXXAEF
modifications: hydroxyethylene transition-state isostere (*) in place of the peptide bond between Leu4 (P1) and Ala5 (P1′)
notes: also called EVNLΨAAEF
Take B10: in test [4], the binding result is given as “binds”.

B11: library bead inhibitor Gly-Ile-Asp-Leu*Ala-Val-Tyr-Phe-Arg-Met-Gly-Gly-resin (peptide)
peptide: GIDLAVYFRMGG-resin
modifications: reading uncertain; also: hydroxyethylene isostere between Leu4 and Ala5, printed as Gly-Ile-Asp-Leu*Ala-Val-Tyr-Phe-Arg-Met-Gly-Gly-resin
Regarding B11, the binding result in test [1] is on record as “binds”.
Consider ELDLAVEF (also: hydroxyethylene isostere in place of Leu4-Ala5 peptide bond) [OM00-3 (ELDL*AVEF)], for which, in test [5], the inhibitory constant (Ki) worked out at 0.3 nM, the “fold improvement of Ki over OM99-2” value was determined as 5.2 fold and the “fold lower Ki than OM99-2” value was around 5 fold. Further, the Ki apparent in test [6] turned out to be 0.18 nM. Moreover, the “Ki apparent (M1/M2)” value in test [7] was found to be 0.59. For the same molecule, in test [8], the Ki apparent worked out at 0.31 nM.

B12: library bead inhibitor Gly-Leu-Asp-Leu*Ala-Val-Trp-Phe-Arg-Met-Gly-Gly-resin (peptide)
peptide: GLDLAVWFRMGG-resin
modifications: reading uncertain; also: hydroxyethylene isostere between Leu4 and Ala5, printed as Gly-Leu-Asp-Leu*Ala-Val-Trp-Phe-Arg-Met-Gly-Gly-resin
For the molecule B12, the binding result in test [3] is given as “binds”.

B13: library bead inhibitor Gly-Leu-Asp-Leu*Ala-Val-Met-Phe-Arg-Met-Gly-Gly-resin (peptide)
peptide: GLDLAVMFRMGG-resin
modifications: reading uncertain; also: hydroxyethylene isostere between Leu4 and Ala5, printed as Gly-Leu-Asp-Leu*Ala-Val-Met-Phe-Arg-Met-Gly-Gly-resin
Take B13: the binding result in test [3] is reported as “binds”.

B14: library bead inhibitor Gly-Leu-Glu-Leu*Ala-Val-Trp-Phe-Arg-Met-Gly-Gly-resin (peptide)
peptide: GLELAVWFRMGG-resin
modifications: reading uncertain; also: hydroxyethylene isostere between Leu4 and Ala5, printed as Gly-Leu-Glu-Leu*Ala-Val-Trp-Phe-Arg-Met-Gly-Gly-resin
Regarding B14, the binding result in test [3] is on record as “binds”.

B15: library bead inhibitor Gly-Leu-Asp-Leu*Ala-Val-Leu-Phe-Arg-Met-Gly-Gly-resin (peptide)
peptide: GLDLAVLFRMGG-resin
modifications: reading uncertain; also: hydroxyethylene isostere between Leu4 and Ala5, printed as Gly-Leu-Asp-Leu*Ala-Val-Leu-Phe-Arg-Met-Gly-Gly-resin
B15: in test [3], the binding result is reported as “binds”.

B16: library bead inhibitor Gly-Leu-Glu-Leu*Ala-Val-Gln-Phe-Arg-Met-Gly-Gly-resin (peptide)
peptide: GLELAVQFRMGG-resin
modifications: reading uncertain; also: hydroxyethylene isostere between Leu4 and Ala5, printed as Gly-Leu-Glu-Leu*Ala-Val-Gln-Phe-Arg-Met-Gly-Gly-resin
Regarding B16, the binding result in test [3] and in test [1] was “binds” in each case.

B17: library bead inhibitor Gly-Leu-Asp-Leu*Ala-Val-Thr-Phe-Arg-Met-Gly-Gly-resin (peptide)
peptide: GLDLAVTFRMGG-resin
modifications: reading uncertain; also: hydroxyethylene isostere between Leu4 and Ala5, printed as Gly-Leu-Asp-Leu*Ala-Val-Thr-Phe-Arg-Met-Gly-Gly-resin
Consider B17, for which, in test [3], the binding result is “binds”.

B18: library bead inhibitor Gly-Leu-Asp-Leu*Ala-Val-Lys-Phe-Arg-Met-Gly-Gly-resin (peptide)
peptide: GLDLAVKFRMGG-resin
modifications: reading uncertain; also: hydroxyethylene isostere between Leu4 and Ala5, printed as Gly-Leu-Asp-Leu*Ala-Val-Lys-Phe-Arg-Met-Gly-Gly-resin
Turning to B18, the binding result in test [3] is “binds”.

B19: library bead inhibitor Gly-Ile-Phe-Leu*Ala-Val-Glu-Phe-Arg-Met-Gly-Gly-resin (peptide)
peptide: GIFLAVEFRMGG-resin
modifications: reading uncertain; also: hydroxyethylene isostere between Leu4 and Ala5, printed as Gly-Ile-Phe-Leu*Ala-Val-Glu-Phe-Arg-Met-Gly-Gly-resin
B19: the binding result in test [3] was “binds”.

B20: library bead inhibitor Gly-Leu-Asn-Leu*Ala-Val-Glu-Phe-Arg-Met-Gly-Gly-resin (peptide)
peptide: GLNLAVEFRMGG-resin
modifications: reading uncertain; also: hydroxyethylene isostere between Leu4 and Ala5, printed as Gly-Leu-Asn-Leu*Ala-Val-Glu-Phe-Arg-Met-Gly-Gly-resin
For B20, in test [3], the binding result is “binds”.

B21: library bead inhibitor Gly-Ile-Asn-Leu*Ala-Val-Leu-Phe-Arg-Met-Gly-Gly-resin (peptide)
peptide: GINLAVLFRMGG-resin
modifications: reading uncertain; also: hydroxyethylene isostere between Leu4 and Ala5, printed as Gly-Ile-Asn-Leu*Ala-Val-Leu-Phe-Arg-Met-Gly-Gly-resin
On to B21, for which, in test [3], the binding result is on record as “binds”.

Source of the values: patent publication US20060234944A1 (OKLAHOMA MEDICAL RESEACH FOUNDATION, published 2006).
